This is an account of results in patent US20140099668A1.

The experiment has as its target ERK (extracellular-signal-regulated kinase; mitogen-activated protein kinase). Nature of the experiment: cell-based or functional assay.

B1: ERK decoy protein (ER localization signal, a c-Myc epitope tag, and the ERK polyligand of SEQ ID NO:1) (designed binder, part only; not given: ER signal and c-Myc tag, not shown: small tags and cut ends)
chain, part: MPKKKPTPIQLNPAAKGRKPRDLELPAAAATGPLAPGPFGAGAYSPTAPTYSPTAPKKKGGGGAPRAPGGRRAGAGRRPRAPAKLSFFFPS
For the molecule B1, the ERK activity in the endoplasmic reticulum (phosphorylation of myelin basic protein), Cos7 cells with M1-RasV12 is 60% and the decrease in transformed foci formation, NIH3T3 cells transfected with H-RasV12 is 50%.
